How the values were obtained:
[1] = target: T1, Met on human tumour cells (GTL-16, FaDu) (human, UniProt P08581 25-1390); test: cell-binding assay (Lindmo), radiolabelled antibody on serial dilution of paraformaldehyde-fixed GTL-16 cells
T1 construct: whole, on cells; Endogenous Met on 2% paraformaldehyde-fixed cells; also called Hepatocyte Growth Factor Receptor; HGFR

[2] = target: T1, Met on human tumour cells (GTL-16, FaDu); test: cell-binding assay (Lindmo), radiolabelled antibody on paraformaldehyde-fixed GTL-16 cells, double-reciprocal plot extrapolated
[3] = target: T1, Met on human tumour cells (GTL-16, FaDu); test: immunocytochemistry on fixed cytospins and immunohistochemistry on frozen xenograft sections, streptavidin-alkaline phosphatase
Met = target: T2, Met (UniProt P08581 25-932, limits assumed)
T2 construct: Target of the stated Kd; The assay and the construct are not described; also called Hepatocyte Growth Factor Receptor; HGFR
T2 sequence (P08581 25-932 limits assumed): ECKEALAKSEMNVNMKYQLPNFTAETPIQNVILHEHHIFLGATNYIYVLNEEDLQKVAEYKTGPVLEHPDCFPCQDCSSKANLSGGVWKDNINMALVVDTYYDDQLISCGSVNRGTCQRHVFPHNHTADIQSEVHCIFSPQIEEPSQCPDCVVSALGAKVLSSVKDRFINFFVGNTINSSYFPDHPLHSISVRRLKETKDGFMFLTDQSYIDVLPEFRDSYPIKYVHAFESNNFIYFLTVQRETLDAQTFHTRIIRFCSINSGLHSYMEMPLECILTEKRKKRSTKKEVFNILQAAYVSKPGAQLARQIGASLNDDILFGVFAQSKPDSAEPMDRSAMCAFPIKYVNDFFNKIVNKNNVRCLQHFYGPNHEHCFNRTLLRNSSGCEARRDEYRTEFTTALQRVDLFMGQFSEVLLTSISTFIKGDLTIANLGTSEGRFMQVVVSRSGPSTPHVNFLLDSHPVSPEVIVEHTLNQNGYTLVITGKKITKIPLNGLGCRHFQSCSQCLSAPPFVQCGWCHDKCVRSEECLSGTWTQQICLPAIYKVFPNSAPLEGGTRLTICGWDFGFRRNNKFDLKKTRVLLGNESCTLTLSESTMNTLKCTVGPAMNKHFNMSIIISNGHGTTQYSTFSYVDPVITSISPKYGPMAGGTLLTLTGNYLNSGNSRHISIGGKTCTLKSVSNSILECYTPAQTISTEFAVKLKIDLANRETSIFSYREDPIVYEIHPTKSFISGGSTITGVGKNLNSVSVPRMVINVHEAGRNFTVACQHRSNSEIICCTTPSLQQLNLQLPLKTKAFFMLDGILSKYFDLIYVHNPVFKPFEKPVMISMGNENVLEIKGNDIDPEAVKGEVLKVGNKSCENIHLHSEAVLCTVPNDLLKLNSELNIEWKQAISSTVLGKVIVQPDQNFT

T1 sequence (P08581 25-1390): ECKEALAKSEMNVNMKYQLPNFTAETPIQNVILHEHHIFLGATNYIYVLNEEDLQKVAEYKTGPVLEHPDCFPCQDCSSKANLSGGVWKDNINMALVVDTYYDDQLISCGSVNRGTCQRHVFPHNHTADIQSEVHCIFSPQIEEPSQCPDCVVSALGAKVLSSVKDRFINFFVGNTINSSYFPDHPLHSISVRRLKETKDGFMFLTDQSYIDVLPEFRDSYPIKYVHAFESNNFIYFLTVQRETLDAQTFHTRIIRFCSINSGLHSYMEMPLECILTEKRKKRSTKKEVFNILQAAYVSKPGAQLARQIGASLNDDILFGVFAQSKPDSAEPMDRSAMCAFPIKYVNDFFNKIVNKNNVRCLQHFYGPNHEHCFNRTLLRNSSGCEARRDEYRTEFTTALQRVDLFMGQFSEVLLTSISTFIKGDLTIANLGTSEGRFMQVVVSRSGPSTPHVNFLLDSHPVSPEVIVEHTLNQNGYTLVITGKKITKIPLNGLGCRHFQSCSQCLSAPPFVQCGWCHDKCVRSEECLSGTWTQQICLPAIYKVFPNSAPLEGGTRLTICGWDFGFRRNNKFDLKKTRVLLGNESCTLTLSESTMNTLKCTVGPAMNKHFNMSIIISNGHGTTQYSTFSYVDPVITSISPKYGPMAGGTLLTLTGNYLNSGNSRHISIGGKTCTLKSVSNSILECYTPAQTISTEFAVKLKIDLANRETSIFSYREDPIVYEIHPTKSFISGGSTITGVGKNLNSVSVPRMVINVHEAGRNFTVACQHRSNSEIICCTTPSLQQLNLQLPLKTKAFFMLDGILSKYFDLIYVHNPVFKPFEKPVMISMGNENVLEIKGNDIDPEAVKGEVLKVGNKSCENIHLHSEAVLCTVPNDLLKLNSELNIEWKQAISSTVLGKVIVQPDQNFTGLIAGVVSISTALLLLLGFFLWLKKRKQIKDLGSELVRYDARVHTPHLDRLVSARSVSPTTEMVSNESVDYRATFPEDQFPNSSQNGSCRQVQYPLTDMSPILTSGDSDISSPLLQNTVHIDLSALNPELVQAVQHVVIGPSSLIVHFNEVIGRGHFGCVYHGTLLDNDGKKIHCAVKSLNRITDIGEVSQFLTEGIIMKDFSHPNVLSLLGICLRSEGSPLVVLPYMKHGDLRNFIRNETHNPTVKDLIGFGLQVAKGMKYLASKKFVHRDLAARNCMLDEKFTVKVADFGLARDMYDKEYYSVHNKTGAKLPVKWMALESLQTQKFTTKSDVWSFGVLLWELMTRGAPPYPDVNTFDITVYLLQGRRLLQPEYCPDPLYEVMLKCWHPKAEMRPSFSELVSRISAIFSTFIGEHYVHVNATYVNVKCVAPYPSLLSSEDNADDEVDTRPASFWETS

B1: 89Zr-N-sucDf-DN30 (antibody, mouse IgG2a, kappa, V domains shown)
VH: QVQLQQPGTELVKPGASVKLSCKASGYTFTSYWIHWVKQRPGQGLEWIGEINPSSGRTNYNEKFKNKVTVTVDKSSTTAYMQLSNLTSEDSAVYYCASRGYWGQGTTLTVSS
VL: DIVLTQSPASLAVSLGQRATISCKASQSVDYDGGSYMSWFQQRPGQPPKLLISAASNLESGIPARFSGSGSGTDFTLNIHPVEEEDVATYYCQQSYEDPLTFGAGTKLELKR
modifications: N-succinyl-desferal (N-sucDf) chelate carrying 89Zr coupled to lysine residues, approximately 1 N-sucDf moiety per DN30 molecule; positions not given
immunoreactivity at the highest cell concentration [1]: > 70% | immunoreactivity at infinite antigen excess [2]: > 95%

B2: biotinylated DN30 (antibody, mouse IgG2a, kappa, V domains shown)
VH: B1 VH
VL: B1 VL
modifications: biotinylated; positions not given
binding result [3]: binds

B3: 131I-DN30 (antibody, mouse IgG2a, kappa, V domains shown)
VH: B1 VH
VL: B1 VL
modifications: radioiodinated with 131I (IODO-GEN method); positions not given
immunoreactivity at the highest cell concentration [1]: > 70% | immunoreactivity at infinite antigen excess [2]: > 95%

B4: murine IgG2a MAb DN30 (antibody, V domains shown)
VH: B1 VH
VL: B1 VL
notes: Murine IgG2a from the hybridoma; also called anti-Met monoclonal antibody produced by the hybridoma cell line ICLC PD 05006
Kd (Met): 2.64 nM

From patent publication EP2127683A1 (Metheresis Translational Research SA, dated 2009)
